Data reported in publication PMC11162770, “The mutation R107Q alters mtSSB ssDNA compaction ability and binding dynamics” (Nucleic Acids Research, 2024).

Legend:
[1] = biological target: T1, mtSSB WT-Alexa555/647 (human) (UniProt Q04837); experiment: competition; details: WT-Alexa647 vs R107Q-Alexa555 150 nM each (1:1); 24% of ssDNA WT only, 76% both; EMSA: 20 mM Tris-HCl pH 7.8, 10 mM MgCl2, 0.1 mg/ml BSA, 10 mM DTT, 10% glycerol, 2 mM ATP, room temperature; TIRF: ssDNA diluted in 20 mM TrisOAc pH 8, 20% …
T1 sequence: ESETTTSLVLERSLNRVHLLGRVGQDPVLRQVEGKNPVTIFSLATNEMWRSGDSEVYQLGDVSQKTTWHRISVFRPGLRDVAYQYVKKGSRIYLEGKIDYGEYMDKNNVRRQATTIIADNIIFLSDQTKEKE

[2] = tested on: mtSSB R107Q-Alexa555/647 (human); experiment: competition; details: EMSA: 20 mM Tris-HCl pH 7.8, 10 mM MgCl2, 0.1 mg/ml BSA, 10 mM DTT, 10% glycerol, 2 mM ATP
[3] = biological target: T1, mtSSB WT-Alexa555/647 (human); experiment: TIRF dissociation; details: EMSA: 20 mM Tris-HCl pH 7.8, 10 mM MgCl2, 0.1 mg/ml BSA, 10 mM DTT, 10% glycerol, 2 mM ATP, room temperature, TIRF: ssDNA diluted in 20 mM TrisOAc pH 8, 20% …
[4] = tested on: mtSSB R107Q-Alexa555/647 (human); experiment: TIRF dissociation; details: unwrapping almost 3 times faster than WT, EMSA: 20 mM Tris-HCl pH 7.8, 10 mM MgCl2, 0.1 mg/ml BSA, 10 mM DTT, 10% glycerol, 2 mM ATP, room temperature, TIRF: ssDNA diluted in 20 mM TrisOAc pH 8, 20% …
[5] = biological target: the molecule itself; experiment: mass photometry; Refeyn TwoMP; proteins prepared at 1 uM and diluted to 100 nM before measurement; data collected for one minute; oligomeric state in solution (tetramer)
[6] = biological target: T2, mtSSB R107Q (His-tag, C-terminal Cys) (human, UniProt Q04837 17-148, R107Q); experiment: BLI; 1:1 fit; Discussion swaps the 30/60-nt labels; EMSA: 20 mM Tris-HCl pH 7.8, 10 mM MgCl2, 0.1 mg/ml BSA, 10 mM DTT, 10% glycerol, 2 mM ATP, room temperature; TIRF: ssDNA diluted in 20 mM TrisOAc pH 8, 20% sucrose, 20 mM DTT, NaOAc 0-400 mM added; BLI and AFS buffers not in material; details: protein: recombinant; tags: N-terminal His; extra C-terminal Cys; chain copies: 4; single strand
T2 sequence: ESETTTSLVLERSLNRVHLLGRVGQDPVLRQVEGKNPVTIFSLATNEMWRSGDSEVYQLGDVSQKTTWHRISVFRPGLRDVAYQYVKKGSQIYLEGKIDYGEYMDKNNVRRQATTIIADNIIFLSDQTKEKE

[7] = biological target: T3, mtSSB WT (His-tag, C-terminal Cys) (human, UniProt Q04837 17-148); experiment: as above; details: protein: recombinant; tags: N-terminal His; extra C-terminal Cys; chain copies: 4; single strand
T3 sequence: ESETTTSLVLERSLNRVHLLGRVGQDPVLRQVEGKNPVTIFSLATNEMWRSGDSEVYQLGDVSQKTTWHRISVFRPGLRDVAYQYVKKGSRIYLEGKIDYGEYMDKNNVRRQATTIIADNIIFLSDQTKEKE

Molecule: lambda ssDNA
- binding signal (% of mtSSB on co-coated ssDNA) [1]: 73
- binding signal (% of mtSSB on co-coated ssDNA) ([2]; R107Q-Alexa555 150 nM vs WT-Alexa647 15 nM (1:0.1), room …, TIRF: ssDNA diluted in 20 mM TrisOAc pH 8, 20% suc): 94
- binding signal (% of ssDNA coated by R107Q only) ([2]; R107Q-Alexa555 vs WT-Alexa647 150 nM each (1:1), bound only together with WT, room temperature, TIRF: ssDNA diluted in 20 mM TrisOAc pH 8, 20% …): 0
- binding signal (% lost after salt) ([3]; 100 mM NaOAc): 20
- binding signal (% lost after salt) ([3]; 400 mM NaOAc): 20
- binding signal (% lost after salt) ([4]; 100 mM NaOAc): 40
- binding signal (% lost after salt) ([4]; 400 mM NaOAc): 77

B1: Mitochondrial single-stranded DNA-binding protein, wild type (mtSSB^WT), lacking the mitochondrial targeting sequence, with N-terminal His-tag and C-terminal … (natural protein, human)
chain: ESETTTSLVLERSLNRVHLLGRVGQDPVLRQVEGKNPVTIFSLATNEMWRSGDSEVYQLGDVSQKTTWHRISVFRPGLRDVAYQYVKKGSRIYLEGKIDYGEYMDKNNVRRQATTIIADNIIFLSDQTKEKEC
notes: one cysteine residue added at the C-terminus for maleimide labelling; not shown: His-tag, N-terminal, kept
- stoichiometry N [5]: 4

B2: Mitochondrial single-stranded DNA-binding protein variant R107Q (mtSSB^R107Q), lacking the mitochondrial targeting sequence, with N-terminal His-tag and … (natural protein, human)
chain: ESETTTSLVLERSLNRVHLLGRVGQDPVLRQVEGKNPVTIFSLATNEMWRSGDSEVYQLGDVSQKTTWHRISVFRPGLRDVAYQYVKKGSQIYLEGKIDYGEYMDKNNVRRQATTIIADNIIFLSDQTKEKEC
notes: one cysteine residue added at the C-terminus for maleimide labelling; R107Q is a variant found in patients; PDB 6RUP is the wild-type parent's structure; not shown: His-tag, N-terminal, kept
- stoichiometry N [5]: 4

B3: poly-dT60 (ssDNA)
DNA: TTTTTTTTTTTTTTTTTTTTTTTTTTTTTTTTTTTTTTTTTTTTTTTTTTTTTTTTTTTT
- Kd [6]: 1.18 ± 0.02 nM
- Kd [7]: 1.17 ± 0.02 nM

B4: poly-dT30 (ssDNA)
DNA: TTTTTTTTTTTTTTTTTTTTTTTTTTTTTT
- Kd [6]: 1.35 ± 0.04 nM
- Kd [7]: 2.18 ± 0.1 nM
